The assay deals with T1, commercial recombinant human full-length wtTDP-43 (Abcam, ab224788) (human, UniProt Q13148 1-414).
T1 construct: TDP-43 (TARDBP), human, wild type, recombinant full length; also called recombinant wtTDP-43; source: bought: Abcam, ab224788
Kind of assay: ELISA; indirect ELISA: wells coated overnight at 4 °C with commercial human wtTDP-43 at 1 µg/mL in PBS; purified scFv at 1, 5 or 10 µg/mL, 1 h at RT; detected with HRP-conjugated anti-6xHis antibody, absorbance at 450 nm. To be noted: both partners purified. A general note: ELISA stands for enzyme-linked immunosorbent assay.

T1 sequence (Q13148 whole entry): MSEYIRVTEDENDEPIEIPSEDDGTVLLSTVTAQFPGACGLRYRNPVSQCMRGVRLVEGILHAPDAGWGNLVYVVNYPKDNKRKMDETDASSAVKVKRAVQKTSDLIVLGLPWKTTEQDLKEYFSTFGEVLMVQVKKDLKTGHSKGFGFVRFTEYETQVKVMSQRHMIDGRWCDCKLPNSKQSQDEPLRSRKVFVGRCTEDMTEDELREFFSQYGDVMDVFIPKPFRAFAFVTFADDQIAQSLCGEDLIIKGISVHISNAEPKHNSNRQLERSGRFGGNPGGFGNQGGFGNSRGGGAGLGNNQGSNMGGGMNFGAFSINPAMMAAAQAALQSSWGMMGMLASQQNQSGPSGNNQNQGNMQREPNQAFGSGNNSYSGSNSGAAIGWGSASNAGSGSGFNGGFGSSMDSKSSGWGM

B1: scFv B1, purified (c-myc and 6xHis tags) (scFv)
scFv: MAEVQLVESGGSLVKPGGSLRLSCAASGFTFSNYDMNWVRQAPGKGLEWISDIDGSSRNIYYADFVKGRFTISRDNATNSLYLQMNSLRAEDTAVYYCVRSSYYDNGMDVWGRGTLVTVSSGGGGSGGGGSGGGGSQSVLTQPASVSGSPGQSITISCAGTSSDVGGYDGVSWYQQHPGKAPKLMIYYDSYRPSGVSNRFSGSKSGNTASLTISGLQAEDEADYYCSSYTYYSTRVFGGGTKLAVLG
notes: VH of scFv B1 as printed; linker of the HuscI library between VH and VL; VL of scFv B1; Selected from the human synthetic HuscI library; The scFv was moved as an NcoI-NotI fragment from pHEN-HuscI into pET-23NN, which adds c-myc and 6xHis at the 3' end; source: E. coli BL21(DE3)pLysS, pET-23NN vector, purified (Ni-NTA, dialysed in MilliQ water); not shown: c-myc, C-terminal, kept; His6, …
For the molecule B1, the “fold increase of the ELISA signal over the control scFv 13R4 at 5 µg/mL” value is 5 fold and the “fold increase of the ELISA signal over the control scFv 13R4 at 10 µg/mL” value was 3 fold.

B2: scFv D7, purified (c-myc and 6xHis tags) (scFv)
scFv: MAEVQLVESGGSLVKPGGSLRLSCAASGFTFSNYYMNWVRQAPGKGLEWISDIYGSSRYISYADFVKGRFTISRDNATNSLYLQMNSLRAEDTAVYYCVRSSSNDGGGMDVWGRGTLVTVSSGGGGSGGGGSGGGGSQSVLTQPASVSGSPGQSITISCAGTSSDVGGNNYVSWYQQHPGKAPKLMIYYDSYRPSGVSNRFSGSKSGNTASLTISGLQAEDEADYYCSSYTYSSTRVFGGGTKLAVLG
notes: VH of scFv D7 as printed; linker of the HuscI library between VH and VL; VL of scFv D7; Selected from the human synthetic HuscI library; The scFv was moved as an NcoI-NotI fragment from pHEN-HuscI into pET-23NN, which adds c-myc and 6xHis at the 3' end; source: E. coli BL21(DE3)pLysS, pET-23NN vector, purified (Ni-NTA, dialysed in MilliQ water); not shown: c-myc, C-terminal, kept; His6, …
As to B2, the “fold increase of the ELISA signal over the control scFv 13R4 at 5 µg/mL” value is 2 fold and the “fold increase of the ELISA signal over the control scFv 13R4 at 10 µg/mL” value amounted to 2 fold.

Values taken from paper PMC12321133, “scFv intrabody targeting wildtype TDP-43 presents protective effects in a cellular model of TDP-43 proteinopathy” (PLOS One, 2025).
